Results from patent US20240376183A1 (UNIVERSIT T ZU K LN, published 2024).

B1: antibody 1-18 (antibody, V domains shown)
VH: QGRLFQSGAEVKRPGASVRISCRADDDPYTDDDTFTKYWTHWIRQAPGQRPEWLGVISPHFARPIYSYKFRDRLTLTRDSSLTAVYLELKGLQPDDSGIYFCARDPFGDRAPHYNYHMDVWGGGTAVIVSS
VL: EVVLTQSPAILSVSPGDRVILSCRASQGLDSSHLAWYRFKRGQIPTLVIFGTSNRARGTPDRFSGSGSGADFTLTISRVEPEDFATYYCQRYGGTPITFGGGTTLDKK
B2: antibody 1-55 (antibody, V domains shown)
VH: QRRLFQSGTEVKRPGASVKISCRADDDPYTDDDTFTKYYTHWIRQAPGQPPEWLGVISPHFARPIYSYKFRDRLTLTRDSSLTAVYFELRGLQPDDTGIYFCARDPFGDMYPHYNYHMDVWGGGTTVIVSA
VL: EAVLTQSPAILSVSPGDRVILSCKASEGLSSSDLAWYRFKGGQIPTLVIFGASNRARGTPDRFSGSGSGTDFTLTINRVEPEDFATYYCQRYGGTPITFGGGTTLDKK
B3: antibody 2-12 (antibody, V domains shown)
VH: QLVQSGGGVRRPGASVKISCETPEDTFTKYWLHWLRQAPGQGLEWMGVVSPHGGRPMFAFEFRDRLTLTRDIHTTTHFMELRGLTSDDTAVYYCARDPFGETFRGHDQPYRMDVWGGGTTIVVSS
VL: EPVLTQSPGTLSVSPGEGATLSCRARQGFSADHVAWFQKKPGRPPRLLIFEASRRASGTPERFSGSGSGPEYTLTITRVEAEDFAVYYCQSYGSITPLVFGGGTRVDVK

Target: HIV-1 Env protein of virus strain 89-F1_2_25 (HIV-1)
Assay: cell-based or functional assay

Binder | IC50, TZM-bl pseudovirus neutralization assay [ng/mL]
B1 | 7
B2 | 14
B3 | 6
